In US11268120B2, “Identification of transglutaminase substrates and uses therefor” (Roche Sequencing Solutions, Inc., priority 2014, dated 2022):
Values belong to the molecule of their own block, whether it stands above or below them. No end group written: not given here. *: point of attachment. Cbz = O=C(OCc1ccccc1)*

Key:
MTG [1] = biological target: T1, MTG (Streptomyces mobaraensis, UniProt P81453); experiment: GLDH-coupled continuous assay for MTG activity in solution, Lys-containing substrate peptides; assay type: biochemical
T1 construct: purchased Zedira GmbH
T1 sequence (P81453 77-407): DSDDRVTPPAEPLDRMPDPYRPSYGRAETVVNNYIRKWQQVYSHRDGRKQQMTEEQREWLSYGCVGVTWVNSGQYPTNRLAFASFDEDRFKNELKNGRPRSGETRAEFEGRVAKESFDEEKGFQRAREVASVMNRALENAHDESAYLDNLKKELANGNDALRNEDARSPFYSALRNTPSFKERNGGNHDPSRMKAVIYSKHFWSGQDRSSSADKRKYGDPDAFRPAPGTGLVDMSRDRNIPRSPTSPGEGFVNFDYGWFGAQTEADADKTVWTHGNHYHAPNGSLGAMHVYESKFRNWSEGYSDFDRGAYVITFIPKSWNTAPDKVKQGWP
Experimental: (§1) FIG. 3 is a plot of MTG activity obtained by measuring rates of NADH oxidation at 340 nm and 37° C. using various concentrations of the di-peptide QG (1-20 mM) and the peptide […] (SEQ ID NO: 86) (0.2-5 mM) in the GLDH-coupled assay. The Michaelis-Menten equation was used to fit hyperbolic curves to the data points, giving Km and Vmax parameters and allowing calculation of turnover number (kcat) and catalytic efficiency (kcat/KM). Improved performance of array selected […] (SEQ ID NO: 86) (open squares) substrate was observed compared to standard QG-substrate (filled squares). ‘Z’ represents a carboxybenzyl protective group. […] The Michaelis-Menten equation was used to fit hyperbolic curves to the data points, giving Km and Vmax parameters as well as allowing calculation of turnover number (kcat) and catalytic efficiency (kcat/KM). Improved performance of array selected […] (SEQ ID NO: 80) (filled squares) substrate was observed as compared to a […] (SEQ ID NO: 81) substrate (filled circles). ‘Z-’ represents a carboxybenzyl protective group.
Lys-tag peptides were assayed in solution analog to the Gln-containing substrates: The assay was performed in a 96-well microtiter plate in the presence of 1.25 mM α-ketoglutarate, 100 μM Z-[…] (SEQ ID NO: 86) peptide as […], 0.2 U of glutamate dehydrogenase (GLDH), 500 μM NADH and Lys-containing substrate peptide concentrations ranging between 0 and 500 μM in 200 mM MOPS, 1 mM EDTA pH 7.2 (total volume per well 200 μl). The reaction was started by the addition of 0.1 U of MTG (Zedira GmbH) and the oxidation of NADH was continuously recorded against a blank at 340 nm for 20 min using a Biotek Synergy H4 microplate reader thermostated at 37° C. with short shaking intervals before each measurement. After a short lag phase, where the GLDH was saturated by MTG-mediated release of ammonia, linear rates of absorbance versus time, corresponding to MTG turnover, were observed, and subjected to Michaelis-Menten kinetic analysis.

MTG [2] = biological target: T1, MTG; experiment: GLDH-coupled continuous assay for MTG activity in solution, Gln-containing substrate peptides; assay type: biochemical; settings: pH 7.2, 37° C.
Experimental: as §1
It was next determined whether peptides selected in the array assay were also preferred substrates in the solution reaction. The performance of the […] (SEQ ID NO: 26) peptide found in the array assay and the QG peptide substrate commonly used for testing MTG activity were compared. […]
The assay was performed in a 96-well microtiter plate in the presence of 10 mM α-ketoglutarate, 10 mM glycine methyl ester as acyl acceptor, 2 U of glutamate dehydrogenase (GLDH), 500 μM NADH (i.e., reduced nicotinamide adenine dinucleotide) and Gln-containing substrate peptide concentrations ranging between 0.2 and 20 mM in 200 mM MOPS (i.e., 3-(N-morpholino)propanesulfonic acid), 1 mM EDTA pH 7.2 (total volume per well 200 μl). The reaction was started by the addition of 0.1 U of MTG (Zedira GmbH) and the oxidation of NADH was continuously recorded against a blank at 340 nm for 20 min using a Biotek Synergy H4 microplate reader thermostated at 37° C. with short shaking intervals before each measurement. […]

[3] = BIACORE 3000 binding kinetics of VitDBP constructs to biotin labeled 25-OH-VitD2; settings: 25° C.
Experimental: Experiments were carried out to determine whether the addition of an array-selected motif interferes with the ability of VitDBP to bind to its natural ligand, 25-hydroxylated vitamin D2 (25-OH-VitD2). The glutamine donor motif selected for use was […] (i.e., SEQ ID NO 86). A BIACORE SA sensor was mounted into a BIACORE 3000 instrument. The instrument was tempered at 25° C. The sensor was preconditioned as recommended by the manufacturer (GE Healthcare). The system buffer was PBS pH 8.2 with 5% DMSO and 0.05% TWEEN20. The sample buffer was the system buffer supplemented with 1 mg per ml CMD (Sigma). From a 300 nM biotin labeled 25-OH-VitD2 (25-OH-VitD2-bi) sample solution 860 RU were captured on the sensor flow cell 2 by a 2 min injection at 10 μl per minute. The sensor surface was finally saturated by 5 μM amino-PEO-biotin (Pierce). As a reference, 1 μM amino-PEO-biotin was injected into flow cell 1 for 1 min at a rate of 10 μl per minute.
The analytes wt-VitDBP-His8 and wt-VitDBP-His8-Q2 were compared for their binding behavior towards 25-OH-VitD2. The Gln-motif was later ruthenylated by an MTG catalyzed reaction as described (FIGS. 10A and 10B).
The analytes were injected in concentration series of 600 nM, 200 nM, 67 nM, 22 nM, 7.4 nM and 0 nM (buffer only). The analyte association was monitored for 3 min and the dissociation for 5 min both at 20 μl per minute (FIGS. 11 and 12).
After each injection the system was regenerated by a 100 mM HCl injection for 1 minute and 15 seconds at 20 μl per minute followed by a 2 min injection of 10 mM glycine buffer pH 1.5. The data was overlayed in a BIACORE sensorgram and kinetic data was calculated by fitting a Langmuir 1:1 binding model to the data obtained as recommended by the manufacturer using the Biaevaluation Software version 4.1.

Molecule: Z-GGGARSKLGGGG
- apparent difference in MTG catalytic efficiency compared to low-signal substrate GGGDEKPDGGGG (MTG [1]): at least 10 fold
- Km (MTG [1]; Lys-peptide 0-500 μM, 100 μM Z-GGGDYALQGGGG, pH 7.2, 37° C.): 66.8 ± 20.2 µM
- Vmax (MTG [1]; Lys-peptide, 0.1 U MTG, pH 7.2, 37° C.): 5.1 ± 0.5 pmol/s
- kcat (MTG [1]; Lys-peptide, pH 7.2, 37° C.): 0.066 s⁻¹

Molecule: Z-GGGDEKPDGGGG (Cbz-GGGDEKPDGGGG) [reference compound]
- MTG activity (in words) (MTG [1]; kinetic data could not be determined): extremely low activity

Molecule: Z-GGGDYALQGGGG (Cbz-GGGDYALQGGGG)
- Km (MTG [2]; Gln-peptide 0.2-20 mM, 10 mM glycine methyl ester as acyl acceptor): 970 ± 320 µM
- Vmax (MTG [2]; Gln-peptide, 0.1 U MTG): 0.46 ± 0.06 nmol/s
- kcat (MTG [2]; Gln-peptide): 6.0 s⁻¹

- Kd ([3]; Langmuir 1:1 binding model): 95 nM
- ka ([3]; Langmuir 1:1 binding model): 13800 M⁻¹ s⁻¹
- kd ([3]; Langmuir 1:1 binding model): 0.00131 s⁻¹
- Kd ([3]; Ligand VitD2-250H-biotin (300 nM)): 95 nM
B1: wt-VDBP-His8: wild type vitamin D binding protein with C-terminally fused 8× Histidine tag, without Q2 tag (protein, UniProt P02774 17-474, looked up)
Vitamin D-binding protein: LERGRDYEKNKVCKEFSHLGKEDFTSLSLVLYSRKFPSGTFEQVSQLVKEVVSLTEACCAEGADPDCYDTRTSALSAKSCESNSPFPVHPGTAECCTKEGLERKLCMAALKHQPQEFPTYVEPTNDEICEAFRKDPKEYANQFMWEYSTNYGQAPLSLLVSYTKSYLSMVGSCCTSASPTVCFLKERLQLKHLSLLTTLSNRVCSQYAAYGEKKSRLSNLIKLAQKVPTADLEDVLPLAEDITNILSKCCESASEDCMAKELPEHTVKLCDNLSTKNSKFEDCCQEKTAMDVFVCTYFMPAAQLPELPDVELPTNKDVCDPGNTKVMDKYTFELSRRTHLPEVFLSKVLEPTLKSLGECCDVEDSTTCFNAKGPLLKKELSSFIDKGQELCADYSENTFTEYKKKLAERLKAKLPDATPTELAKLVNKHSDFASNCCSINSPPLYCDSEIDAELKNIL
modifications: His8 tag
